According to US20240287172A1 (SCIRHOM, published 2024):
Substitutions are numbered along the chain they refer to.

T1: hiR1-FL-WT-T7 (human, UniProt Q96CC6 1-855)
T1 construct: on MEF-DKO cells
T1 sequence: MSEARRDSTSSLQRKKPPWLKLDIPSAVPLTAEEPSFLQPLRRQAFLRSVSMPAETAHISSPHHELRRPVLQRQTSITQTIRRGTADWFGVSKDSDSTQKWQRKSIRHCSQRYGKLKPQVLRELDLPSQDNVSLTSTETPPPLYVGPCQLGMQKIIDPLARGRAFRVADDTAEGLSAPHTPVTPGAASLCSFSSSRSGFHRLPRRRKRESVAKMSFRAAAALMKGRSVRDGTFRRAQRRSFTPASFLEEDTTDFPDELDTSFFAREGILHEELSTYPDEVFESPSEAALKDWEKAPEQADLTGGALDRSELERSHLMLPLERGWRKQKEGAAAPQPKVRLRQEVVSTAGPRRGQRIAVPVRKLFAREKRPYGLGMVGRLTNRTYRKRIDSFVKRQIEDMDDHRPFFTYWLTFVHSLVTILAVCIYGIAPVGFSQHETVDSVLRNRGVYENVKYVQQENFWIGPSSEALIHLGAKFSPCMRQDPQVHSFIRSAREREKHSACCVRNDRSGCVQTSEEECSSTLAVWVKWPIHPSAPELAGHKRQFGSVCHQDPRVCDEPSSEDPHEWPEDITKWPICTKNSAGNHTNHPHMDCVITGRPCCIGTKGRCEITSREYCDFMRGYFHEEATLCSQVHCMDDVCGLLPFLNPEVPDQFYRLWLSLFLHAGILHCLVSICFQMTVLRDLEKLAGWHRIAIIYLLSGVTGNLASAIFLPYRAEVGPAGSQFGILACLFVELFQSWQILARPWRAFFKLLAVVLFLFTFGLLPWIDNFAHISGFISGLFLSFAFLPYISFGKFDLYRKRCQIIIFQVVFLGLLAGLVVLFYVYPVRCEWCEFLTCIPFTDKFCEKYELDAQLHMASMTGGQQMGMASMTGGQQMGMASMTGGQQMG

T2: hiR2-FL-R543Q-T7 (human, UniProt Q6PJF5 1-856)
T2 sequence: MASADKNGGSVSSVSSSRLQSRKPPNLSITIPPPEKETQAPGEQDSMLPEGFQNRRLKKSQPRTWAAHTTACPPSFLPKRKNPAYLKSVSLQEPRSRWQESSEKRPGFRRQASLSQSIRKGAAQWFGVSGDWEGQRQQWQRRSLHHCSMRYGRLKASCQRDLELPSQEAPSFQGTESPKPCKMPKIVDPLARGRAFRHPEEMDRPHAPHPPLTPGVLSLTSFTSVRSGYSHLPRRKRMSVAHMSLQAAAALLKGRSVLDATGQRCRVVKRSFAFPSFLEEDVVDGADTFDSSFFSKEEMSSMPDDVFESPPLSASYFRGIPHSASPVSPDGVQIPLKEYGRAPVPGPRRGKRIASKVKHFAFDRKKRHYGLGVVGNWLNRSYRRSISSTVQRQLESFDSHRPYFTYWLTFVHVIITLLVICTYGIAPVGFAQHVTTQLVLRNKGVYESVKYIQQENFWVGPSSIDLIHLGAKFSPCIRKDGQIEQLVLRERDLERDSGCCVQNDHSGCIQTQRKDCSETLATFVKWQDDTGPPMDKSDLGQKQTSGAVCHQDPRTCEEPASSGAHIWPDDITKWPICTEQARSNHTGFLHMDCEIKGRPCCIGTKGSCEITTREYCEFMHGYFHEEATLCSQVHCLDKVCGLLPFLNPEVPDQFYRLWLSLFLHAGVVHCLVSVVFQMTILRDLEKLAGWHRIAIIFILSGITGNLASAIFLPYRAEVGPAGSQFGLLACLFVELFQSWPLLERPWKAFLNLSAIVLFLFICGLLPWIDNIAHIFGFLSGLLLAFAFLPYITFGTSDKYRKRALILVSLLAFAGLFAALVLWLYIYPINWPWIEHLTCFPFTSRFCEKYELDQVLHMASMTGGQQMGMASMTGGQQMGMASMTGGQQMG

B1: antibody 50 (antibody, V domains shown)
VH: QVQLQQSGAELVRPGASVKVSCKASGYAFSNYLIEWVKQRPGQGLEWIGVINPGSGFTKYNEKFKGKATLTADKSSSTAYMQLSSLTSEDSAVYFCARGLYRAMDYWGQGTSVTVSS
VL: DIQMTQSPASQSASLGESVTITCLASQTIGTWLAWYQQKPGKSPQLLIYAAASLADGVPSRFSGGGSGTKFSFKISSLQAEDFVNYYCQQIYSTPYTFGGGTKLEIK
notes: mouse IgG, kappa light chain; also called clone #50; purified antibody 50
B2: antibody 34 (antibody, V domains shown)
VH: QVTLKESGPGILQPSQTLSLTCSFSGFSLSTFSLGVGWIRQSSGKGLEWLAHIWWDDEKYYNPALKSRLTISKDTSKNQVFLKIANVDAADTATYYCARAYYSKSYYALDYWGQGTSVTVSS
VL: DIQMTQSPSSLSASLGERVSLTCRASQEISGYLSWLQQKPDGTIKRLIYAASTLDSGVPKRFSGSRSGSDYSLAISSLESEDFADYYCLQYANFPFTFGSGTKLEIK
notes: mouse IgG, kappa light chain; also called clone #34; purified antibody 34
B3: antibody 43 (antibody, V domains shown)
VH: QVALKESGPGILQPSQTLSLTCSFSGFSLSTFGMGVGWIRQSSGKGLEWLANIWWDDDKYYNPALKSRLTISKDASKNQAFLKIANVDTADTATYYCARIGNYGSNYWYFDVWGTGTTVTVSS
VL: QIVLTQSPAIMSASPGERVTMTCSANSRISYMYWYQQKPGSSPRLLIYDTSNLASGVPVRFSGSGSGTSYSLTISRMEAEDAATYNCQQWSSYPLTFGAGTKLELK
notes: mouse IgG, kappa light chain; also called clone #43; purified antibody 43
B4: antibody 42 (antibody, V domains shown)
VH: B3 VH with A3T, F24L, M34R, S42P, N52H, D58E, A75T, A80V, K83R, G101Q
VL: B3 VL with Q1L, R18K, S24G, N26T, Y33F, L45V, M77V, A82V, N86Y, S91N
notes: mouse IgG, kappa light chain; also called clone #42; purified antibody 42
B5: antibody 44 (antibody, V domains shown)
VH: B3 VH with A3T, S42P, G44E, N52H, A75T, A80I, A85T, D91E, A98S
VL: QIVLTQSPAVMSASPGEKVTMTCTASSSVYYMYWYQQTPGSSPRLLIYDTSNLASGVPVRFSGSGSGTSYSLTISRMEAEDAATYYCQQWNTYPLTFGAGTKLELK
notes: mouse IgG, kappa light chain; also called clone #44; purified antibody 44
B6: antibody 5 (antibody, V domains shown)
VH: B3 VH with A3T, S42P, N52H, D58E, P63S, D74A, A75T, G101S, D111N
VL: QVVLTQSPALMSASPGEKVTMTCSAGSSVSCMYWYQQKPGSSPRVLIYDTSNLASGVPARFTGSGSGTSYSLTISRMEAEDAASYYCQQWNSYPLTFGAGTKLELK
notes: mouse IgG, kappa light chain; also called clone #5; purified antibody 5
B7: antibody 16 (antibody, V domains shown)
VH: QVTLKESGPGILQPSQTLSLTCSFSGFSLSTFALGVGWIRQPSGRGLEWLAHIWWDDDKYYNPALKSRLTISKDTSKNHVFLKIANVDTADTATYYCARITTYYYGMDYWGQGTSVTVSS
VL: DIVLSQSPATLSVTPGDSVSLFCRASQSIGNHLHWYQQESHASPRLLIKYASQSISGIPSRFSGSGSGTDFTLSINSVETEDFGMYFCQQSYNWPLTFGAGTKLELK
notes: mouse IgG, kappa light chain; also called clone #16; purified antibody 16
B8: antibody 22 (antibody, V domains shown)
VH: B3 VH with A3T, S42P, N52H, D58E, P63S, D74A, A75T, A80V, G101S, D111N
VL: B6 VL with C31Y, S84T
notes: mouse IgG, kappa light chain; also called clone #22; purified antibody 22

Biological target: T1, hiR1-FL-WT-T7
Assay: FACS on MEF-DKO cells

Binder | binding result
B1 | no binding (tested: 3 µg/ml)
B2 | no binding (tested: 3 µg/ml)
B3 | no binding (tested: 3 µg/ml)
B4 | no binding (tested: 3 µg/ml)
B5 | no binding (tested: 3 µg/ml)

Biological target: T2, hiR2-FL-R543Q-T7
Assay: FACS on MEF-DKO cells

Binder | binding result
B2 | no binding (tested: 3 µg/ml)
B6 | no binding (tested: 3 µg/ml)
B3 | no binding (tested: 3 µg/ml)
B4 | no binding (tested: 3 µg/ml)

Biological target: T1, hiR1-FL-WT-T7
Assay: FACS on MEF-DKO cells
Remark: another data set of the same source

Binder | binding result
B7 | no binding (tested: 3 µg/ml)
B6 | no binding (tested: 3 µg/ml)
B8 | no binding (tested: 3 µg/ml)
